Measurements: PMC6851183, “Computational design and characterization of nanobody-derived peptides that stabilize the active conformation of the β2-adrenergic receptor (β2-AR)” (Scientific Reports, 2019)

Key:
[1] = target: T1, C-terminal GFP2-tagged β2-adrenergic receptor (β2-AR/GFP2) (human, UniProt P07550 1-413); assay: MST; lysate of HEK-293 cells with β2-AR/GFP2 kept constant as fluorescent target, P3 titrated in 1:1 dilutions, no agonist; MST buffer with 0.05% Tween 20, 25 °C; EC50 from bound fraction; conditions: one partner purified
T1 construct: human β2-adrenergic receptor; not shown: GFP2, C-terminal, kept

[2] = target: T1, C-terminal GFP2-tagged β2-adrenergic …; assay: MST; lysate of HEK-293 cells with β2-AR/GFP2 kept constant as fluorescent target, P3 titrated in 1:1 dilutions, in the presence of 10 µM isoproterenol; MST buffer with 0.05% Tween 20, 25 °C; EC50 from bound fraction; conditions: one partner purified

EC50 [1]: 58.2 ± 13.6 µM
EC50 [2]: 3.57 ± 0.81 µM
B1: P3, nanobody-derived peptide (NDP) of Nb71 (peptide)
peptide: EDTAVYYCNANWDLLSD
notes: 17 aa stretch of the nanobody Nb71 (amino acid residues 88-104, includes CDR3), picked by computational peptide scanning; numbers count on Nb71; source: synthetic peptide, custom-synthesized at Biomatik Corporation
